Test results reported in patent US20080020978A1 (Amgen, published 2008).
Square brackets hold non-standard residues; d marks the D form. Tpi = O=C(O)[C@@H]1Cc2c([nH]c3ccccc23)CN1; Oic = O=C(O)[C@@H]1C[C@@H]2CCCC[C@@H]2N1; hArg = N=C(N)NCCCC[C@H](N)C(=O)O; Cit = NC(=O)NCCC[C@H](N)C(=O)O; Aib = CC(C)(N)C(=O)O

target: T1, CGRP1 receptor (CRLR/RAMP1 complex) of human neuroblastoma SK-N-MC cells (human, UniProt Q16602 23-461; O60894 27-148); experiment: cell-based or functional assay
T1 sequence (Q16602 23-461, chain 1 of 2): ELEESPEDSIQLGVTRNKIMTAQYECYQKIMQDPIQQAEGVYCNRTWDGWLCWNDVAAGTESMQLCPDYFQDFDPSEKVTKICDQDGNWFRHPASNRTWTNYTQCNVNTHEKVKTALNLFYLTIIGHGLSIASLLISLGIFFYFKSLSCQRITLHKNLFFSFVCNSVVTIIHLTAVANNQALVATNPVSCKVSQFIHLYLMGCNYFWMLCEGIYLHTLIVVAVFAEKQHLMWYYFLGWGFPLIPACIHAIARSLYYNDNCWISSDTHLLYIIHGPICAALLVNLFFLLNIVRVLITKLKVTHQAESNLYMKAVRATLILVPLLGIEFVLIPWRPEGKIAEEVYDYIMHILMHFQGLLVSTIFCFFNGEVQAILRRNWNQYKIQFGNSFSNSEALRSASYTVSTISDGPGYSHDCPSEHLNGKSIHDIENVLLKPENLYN
T1 sequence (O60894 27-148, chain 2 of 2): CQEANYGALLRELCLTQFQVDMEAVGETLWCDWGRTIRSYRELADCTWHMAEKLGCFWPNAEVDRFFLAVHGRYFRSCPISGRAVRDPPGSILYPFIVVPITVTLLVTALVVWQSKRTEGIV

Binder | IC50 [nM]
WVTHXLAGLLSRSGGVVRKNFVPTDVGPFAF (Ac-WVTH(hR)LAGLLSRSGGVVRKNFVPTDVGPFAF-NH2) [SEQ ID NO 21] | 0.44
WVTHRLAGLLSXSGGVVRKNFVPTDVGPFAF (Ac-WVTHRLAGLLS(hR)SGGVVRKNFVPTDVGPFAF-NH2; 20 k Da PEG, Amine linkage) [SEQ ID NO 24] | 0.33
WVTHXLAGLLSRSGGVVRKNFVPTDVGPFAF (Ac-WVTH(hR)LAGLLSRSGGVVRKNFVPTDVGPFAF-NH2; 20 k Da PEG, Amine linkage) [SEQ ID NO 22] | 0.36
WVTHRLAGLLSXSGGVVRKNFVPTDVGPFAF (Ac-WVTHRLAGLLS(hR)SGGVVRKNFVPTDVGPFAF-NH2) [SEQ ID NO 23] | 0.57

target: T1, CGRP1 receptor (CRLR/RAMP1 complex) of …; experiment: cell-based or functional assay; remark: another data set of the same source

Binder | IC50 [nM]
Ac-WVTH[Cit]LAGLLS[Cit]SGGVV[hArg]KNFVPTDVG[Aib]FAF-NH2 [SEQ ID NO 670] | 4.37
Ac-[Cit]LAGLLS[Cit]SGGVV[hArg]KNFVPTDVGPFAF-NH2 (SMILES CC(=O)N[C@@H](CCCNC(N)=O)C(=O)N[C@@H](CC(C)C)C(=O)N[C@@H](C)C(=O)NCC(=O)N[C@@H](CC(C)C)C(=O)N[C@@H](CC(C)C)C(=O)N[C@@H](CO)C(=O)N[C@@H](CCCNC(N)=O)C(=O)N[C@@H](CO)C(=O)NCC(=O)NCC(=O)N[C@H](C(=O)N[C@H](C(=O)N[C@@H](CCCCNC(=N)N)C(=O)N[C@@H](CCCCN)C(=O)N[C@@H](CC(N)=O)C(=O)N[C@@H](Cc1ccccc1)C(=O)N[C@H](C(=O)N1CCC[C@H]1C(=O)N[C@H](C(=O)N[C@@H](CC(=O)O)C(=O)N[C@H](C(=O)NCC(=O)N1CCC[C@H]1C(=O)N[C@@H](Cc1ccccc1)C(=O)N[C@@H](C)C(=O)N[C@@H](Cc1ccccc1)C(N)=O)C(C)C)[C@@H](C)O)C(C)C)C(C)C)C(C)C) [SEQ ID NO 657] | 13
Ac-WVTH[Cit]LAGLLS[Cit]SGGVV[hArg]KNFVPTDVGP[Tpi]AF-NH2 (SMILES CC(=O)N[C@@H](Cc1c[nH]c2ccccc12)C(=O)N[C@H](C(=O)N[C@H](C(=O)N[C@@H](Cc1c[nH]cn1)C(=O)N[C@@H](CCCNC(N)=O)C(=O)N[C@@H](CC(C)C)C(=O)N[C@@H](C)C(=O)NCC(=O)N[C@@H](CC(C)C)C(=O)N[C@@H](CC(C)C)C(=O)N[C@@H](CO)C(=O)N[C@@H](CCCNC(N)=O)C(=O)N[C@@H](CO)C(=O)NCC(=O)NCC(=O)N[C@H](C(=O)N[C@H](C(=O)N[C@@H](CCCCNC(=N)N)C(=O)N[C@@H](CCCCN)C(=O)N[C@@H](CC(N)=O)C(=O)N[C@@H](Cc1ccccc1)C(=O)N[C@H](C(=O)N1CCC[C@H]1C(=O)N[C@H](C(=O)N[C@@H](CC(=O)O)C(=O)N[C@H](C(=O)NCC(=O)N1CCC[C@H]1C(=O)N1Cc2[nH]c3ccccc3c2C[C@H]1C(=O)N[C@@H](C)C(=O)N[C@@H](Cc1ccccc1)C(N)=O)C(C)C)[C@@H](C)O)C(C)C)C(C)C)C(C)C)[C@@H](C)O)C(C)C) [SEQ ID NO 676] | 79.3
Ac-VTH[Cit]LAGLLS[Cit]SGGVV[hArg]KNFVPTDVG[Oic]FAF-NH2 (SMILES CC(=O)N[C@H](C(=O)N[C@H](C(=O)N[C@@H](Cc1c[nH]cn1)C(=O)N[C@@H](CCCNC(N)=O)C(=O)N[C@@H](CC(C)C)C(=O)N[C@@H](C)C(=O)NCC(=O)N[C@@H](CC(C)C)C(=O)N[C@@H](CC(C)C)C(=O)N[C@@H](CO)C(=O)N[C@@H](CCCNC(N)=O)C(=O)N[C@@H](CO)C(=O)NCC(=O)NCC(=O)N[C@H](C(=O)N[C@H](C(=O)N[C@@H](CCCCNC(=N)N)C(=O)N[C@@H](CCCCN)C(=O)N[C@@H](CC(N)=O)C(=O)N[C@@H](Cc1ccccc1)C(=O)N[C@H](C(=O)N1CCC[C@H]1C(=O)N[C@H](C(=O)N[C@@H](CC(=O)O)C(=O)N[C@H](C(=O)NCC(=O)N1[C@H](C(=O)N[C@@H](Cc2ccccc2)C(=O)N[C@@H](C)C(=O)N[C@@H](Cc2ccccc2)C(N)=O)C[C@@H]2CCCC[C@@H]21)C(C)C)[C@@H](C)O)C(C)C)C(C)C)C(C)C)[C@@H](C)O)C(C)C) [SEQ ID NO 660] | 3
Ac-[Cit]LAGLLS[Cit]SGGVV[hArg]KNFVPTDVG[Oic]FAF-NH2 [SEQ ID NO 661] | 8.74
Ac-WVTH[Cit]LAGLLS[Cit]SGGVV[hArg]KNFVPTDVG[Oic]FA-NH2 (SMILES CC(=O)N[C@@H](Cc1c[nH]c2ccccc12)C(=O)N[C@H](C(=O)N[C@H](C(=O)N[C@@H](Cc1c[nH]cn1)C(=O)N[C@@H](CCCNC(N)=O)C(=O)N[C@@H](CC(C)C)C(=O)N[C@@H](C)C(=O)NCC(=O)N[C@@H](CC(C)C)C(=O)N[C@@H](CC(C)C)C(=O)N[C@@H](CO)C(=O)N[C@@H](CCCNC(N)=O)C(=O)N[C@@H](CO)C(=O)NCC(=O)NCC(=O)N[C@H](C(=O)N[C@H](C(=O)N[C@@H](CCCCNC(=N)N)C(=O)N[C@@H](CCCCN)C(=O)N[C@@H](CC(N)=O)C(=O)N[C@@H](Cc1ccccc1)C(=O)N[C@H](C(=O)N1CCC[C@H]1C(=O)N[C@H](C(=O)N[C@@H](CC(=O)O)C(=O)N[C@H](C(=O)NCC(=O)N1[C@H](C(=O)N[C@@H](Cc2ccccc2)C(=O)N[C@@H](C)C(N)=O)C[C@@H]2CCCC[C@@H]21)C(C)C)[C@@H](C)O)C(C)C)C(C)C)C(C)C)[C@@H](C)O)C(C)C) [SEQ ID NO 659] | > 1000
WVTHXLAGLLSXSGGVVXKNFVPTDVGXFAF (AC-WVTH[Cit]LAGLLS[Cit]SGGVV[hArg]KNFVPTDVG[Pip]FAF-NH2) [SEQ ID NO 666] | 11.2
WVTHXLAGLLSXSGGVVXKNFVPTDVGPXAF (Ac-WVTH[Cit]LAGLLS[Cit]SGGVV[hArg]KNFVPTDVGP[Tic]AF-NH2) [SEQ ID NO 131] | 89.9
WVTHXLAGLLSXSGGVVXKNFVPTDVGXFAF (Ac-WVTH[Cit]LAGLLS[Cit]SGGVV[hArg]KNFVPTDVG[Hyp]FAF-NH2) [SEQ ID NO 667] | 6.62
WVTHXLAGLLSXSGGVVXKNFVPTDVGXFAF (AC-WVTH[Cit]LAGLLS[Cit]SGGVV[hArg]KNFVPTDVG[Hyp]FAF-NH2) [SEQ ID NO 668] | 6.01
WVTHXLAGLLSXSGGVVXKNFVPTDVGXXAF (Ac-WVTH[Cit]LAGLLS[Cit]SGGVV[hArg]KNFVPTDVG[Pip][1-Nal]AF-NH2) [SEQ ID NO 675] | 10.8
WVTHXLAGLLSXSGGVVXKNFVXTDVGPXAX (Ac-WVTH[Cit]LAGLLS[Cit]SGGVV[hArg]KNFV[Oic]TDVGP[1-Nal]A[2-Nal]-NH2) [SEQ ID NO 133] | 2.73
WVTHXLAGLLSXSGGVVXKNXVXTDVGPXAF (Ac-WVTH[Cit]LAGLLS[Cit]SGGVV[hArg]KN[pI-Phe]V[Oic]TDVGP[pI-Phe]AF-NH2) [SEQ ID NO 136] | 2.34
WVTHXLAGLLSXSGGVVXKNFVXTDVGPXAF (Ac-WVTH[Cit]LAGLLS[Cit]SGGVV[hArg]KNFV[Oic]TDVGP[Bip]AF-NH2) [SEQ ID NO 134] | 3.85
WVTHXLAGLLSXSGGVVXKNFVXTDVGXFAX (Ac-WVTH[Cit]LAGLLS[Cit]SGGVV[hArg]KNFV[Oic]TDVG[Oic]FA[2-Nal]-NH2) [SEQ ID NO 132] | 2.57
WVTHXLAGLLSXSGGVVXKNFVXTDVGPFAX (Ac-WVTH[Cit]LAGLLS[Cit]SGGVV[hArg]KNFV[Oic]TDVGPFA[2-Nal]-NH2) [SEQ ID NO 135] | 3.22
Ac-WVTH[Cit]LAGLLS[Cit]SGGVV[hArg]KNFVPTDVG[Tpi]FAF-NH2 (SMILES CC(=O)N[C@@H](Cc1c[nH]c2ccccc12)C(=O)N[C@H](C(=O)N[C@H](C(=O)N[C@@H](Cc1c[nH]cn1)C(=O)N[C@@H](CCCNC(N)=O)C(=O)N[C@@H](CC(C)C)C(=O)N[C@@H](C)C(=O)NCC(=O)N[C@@H](CC(C)C)C(=O)N[C@@H](CC(C)C)C(=O)N[C@@H](CO)C(=O)N[C@@H](CCCNC(N)=O)C(=O)N[C@@H](CO)C(=O)NCC(=O)NCC(=O)N[C@H](C(=O)N[C@H](C(=O)N[C@@H](CCCCNC(=N)N)C(=O)N[C@@H](CCCCN)C(=O)N[C@@H](CC(N)=O)C(=O)N[C@@H](Cc1ccccc1)C(=O)N[C@H](C(=O)N1CCC[C@H]1C(=O)N[C@H](C(=O)N[C@@H](CC(=O)O)C(=O)N[C@H](C(=O)NCC(=O)N1Cc2[nH]c3ccccc3c2C[C@H]1C(=O)N[C@@H](Cc1ccccc1)C(=O)N[C@@H](C)C(=O)N[C@@H](Cc1ccccc1)C(N)=O)C(C)C)[C@@H](C)O)C(C)C)C(C)C)C(C)C)[C@@H](C)O)C(C)C) [SEQ ID NO 673] | 28.9
Ac-WVTH[Cit]LAGLLS[Cit]SGGVV[Cit]KNFVPTDVG[Oic]KAF-NH2 (SMILES CC(=O)N[C@@H](Cc1c[nH]c2ccccc12)C(=O)N[C@H](C(=O)N[C@H](C(=O)N[C@@H](Cc1c[nH]cn1)C(=O)N[C@@H](CCCNC(N)=O)C(=O)N[C@@H](CC(C)C)C(=O)N[C@@H](C)C(=O)NCC(=O)N[C@@H](CC(C)C)C(=O)N[C@@H](CC(C)C)C(=O)N[C@@H](CO)C(=O)N[C@@H](CCCNC(N)=O)C(=O)N[C@@H](CO)C(=O)NCC(=O)NCC(=O)N[C@H](C(=O)N[C@H](C(=O)N[C@@H](CCCNC(N)=O)C(=O)N[C@@H](CCCCN)C(=O)N[C@@H](CC(N)=O)C(=O)N[C@@H](Cc1ccccc1)C(=O)N[C@H](C(=O)N1CCC[C@H]1C(=O)N[C@H](C(=O)N[C@@H](CC(=O)O)C(=O)N[C@H](C(=O)NCC(=O)N1[C@H](C(=O)N[C@@H](CCCCN)C(=O)N[C@@H](C)C(=O)N[C@@H](Cc2ccccc2)C(N)=O)C[C@@H]2CCCC[C@@H]21)C(C)C)[C@@H](C)O)C(C)C)C(C)C)C(C)C)[C@@H](C)O)C(C)C) [SEQ ID NO 665] | 3.77
Ac-LAGLLS[Cit]SGGVV[hArg]KNFVPTDVG[Oic]FAF-NH2 (SMILES CC(=O)N[C@@H](CC(C)C)C(=O)N[C@@H](C)C(=O)NCC(=O)N[C@@H](CC(C)C)C(=O)N[C@@H](CC(C)C)C(=O)N[C@@H](CO)C(=O)N[C@@H](CCCNC(N)=O)C(=O)N[C@@H](CO)C(=O)NCC(=O)NCC(=O)N[C@H](C(=O)N[C@H](C(=O)N[C@@H](CCCCNC(=N)N)C(=O)N[C@@H](CCCCN)C(=O)N[C@@H](CC(N)=O)C(=O)N[C@@H](Cc1ccccc1)C(=O)N[C@H](C(=O)N1CCC[C@H]1C(=O)N[C@H](C(=O)N[C@@H](CC(=O)O)C(=O)N[C@H](C(=O)NCC(=O)N1[C@H](C(=O)N[C@@H](Cc2ccccc2)C(=O)N[C@@H](C)C(=O)N[C@@H](Cc2ccccc2)C(N)=O)C[C@@H]2CCCC[C@@H]21)C(C)C)[C@@H](C)O)C(C)C)C(C)C)C(C)C) [SEQ ID NO 662] | 16.5
